Assay: soluble on expression in E. coli; label from the status in PepcDB or PDB records

| Sequence | soluble on expression in E. coli |
| --- | --- |
| MGSDKIHHHHHHVSTQFQGVIPPVITPRHADGSIDTSSLKNVTRHLIDGGVSGLFVLGSSGEVPYMTNAERELVVSTIADANASVGARAVPLIVGANEQTTNRVIEEAKKVIGLGADAIVVTSMYYAIGNAAETETHFRSIHAAVDKPIFAYDVPVRTHFKLPTDLLVRLGRDGVIAGVKDSSGDDVSFRQLLLEAKDIPDFDIFTGHEVVVDGALLGGAQGVVPGLGNVDPAGYRRLFDAAQAGDWATAAREQDRLADLFEIVYAPNGRVSGGAAGLGAFKTALQLMGVIESNTMSQPMLSLNDDEAAAIRTILERNGLV | not soluble |
| MDWSEERTATLKKLWLEGLSASQVARQLGGVSRSAVIGKVHRLGITVRETPVRQRATTARAPSRISVRQRPSRDVATPRVAPRYERIEEDLLPTSGILGLGAHSCRWPIGHPENDDFGFCGRPKASARGSYCEQHSQGAFRRLSGGQALEAWALKGVKEKRIQPRLVLEHHHHHH | not soluble |
| MARHHHHHHMPEGKIIKALSGFYYVLDESEDSDKVIQCRGRGIFRKNKITPLVGDYVVYQAENDKEGYLMEIKERTNELIRPPICNVDQAVLVFSAVQPSFSTALLDRFLVLVEANDIQPIICITKMDLIEDQDTEDTIQAYAEDYRNIGYDVYLTSSKDQDSLADIIPHFQDKTTVFAGQSGVGKSSLLNAISPELGLRTNEISEHLGRGKHTTRHVELIHTSGGLVADTPGFSSLEFTDIEEEELGYTFPDIREKSSSCKFRGCLHLKEPKCAVKQAVEDGELKQYRYDHYVEFMTEIKDRKPRY | soluble |
| MYQVITMYGDNEPWWFFDDWQEDIVQEKTFDNLTDAETYYVEVWQKLSQNYTYVNTKPNYLTAFWNDGEERWCEECDEDLQQYFGLALLENHHAVTFENKAEFTTISNHFGKTKFCKRKVI | not soluble |
| STMSGYLYRSKGSKKPWKHLWFVIKNKVLYTYAASEDVAALESQPLLGFTVTLVKDENSESKVFQLLHKGMVFYVFKADDAHSTQRWIDAFQEGTV | soluble |
| MGSDKIHHHHHHMVKVEIDEGSGFCFGVVTAIHKAEEELAKGVTLYCLGDIVHNSREVERLKEMGLITINHEEFKQLHNAKVLLRAHGEPPETYIIAKENNIEIIDATCPVVLRLQKRIKQEYMQEDLDEKQIVIYGKNGHAEVLGLVGQTTGKAIVIEKLDEARRLDFSKSIRLYSQTTKSLDEFWEIVEYIKEHISPDVTFEYYDTICRQVANRMPNLRKFAASHDLIFFVSGKKSSNGKMLFEECKKVNPNSHLIDSADEIDDSLLPGVNSIGVCGATSTPKWLMEEISEAIKAQIKRQ | not soluble |
| ESRSQISRRNQDMLLSVLDLEKMTVDDIMVPRSEIIGIDINDDWKSILRQLSHSPHGRIVLYRDSLDDAISMLRVREAWRLMSEKKEFTKETMLRAADEIYFVPEGTPLSTQLVKFQRNKKKVGLVVNEYGDIQGLVTVEDILE | not soluble |
| MKTSSASKSHYTGQFPQGDLQPKTPIPVGRNSEIPKDAALSAQLKGLRPLDRKPSKMPTSSSDLQAVNKMIAENRSNDVGKGQFLLSTQSLGSAERVDSQNYHSRNESGKAPLFFSEFATEKPSLQSVKSLSQGKQDYYAVRHVGKRGRDLFTDEPIEGENSKLGRLKTSPLLSTQSQGTRAIRAFAATATIDKSRGEYVARLHRHVVEALGDEGGVVHLLRPTRDHYAEDSTLNFFTFCEQTELASSLNSLEAISAKKEDRKPIVFTDHKSLVGLSRTSRTEASPIGRLVQQPYFVTSDLKRGDKVVITDDHIQAGGSMLAMEAAAKEAGVDVLALATLSAHPFSPQLTMSSEVSAFLDETLAAWDPQGKVTERLAAIGMPREKLTNSEAMILIAYAIDPASDSAILRFESIQNNLFKRAHLHNVGIDPDAPDTLEQMQKLSSMQEMAGTDSARHFVDDAKVLEGEHDSLIPILKMKPASP | not soluble |
| PQMKTLETRSCILRPASLDDVEDFFDCYKNKIVVKHLPFSEHKSLEDTRKFIKSFFLNPYKKGKIGHFAIVYKRDNKVIGNMGFNNINPKALEAEIGICINPSYWGHDFATEITKRVIQYGFRELNLNKIIAITYEENQNSTKSLDLLGFKCTGKYIKKIHTGNTVKNVPCYQYELKKQ | not soluble |
| MDDLPYLARGVMPVETPSSVLVSSSKYLNNPRLREWLAMILLRKNGPDFPPPAEMYEFLPILEELRDHDRIEAMFAEERRVNPELDAWLSEGFYSTYAIEDFRQFAPGTLGGIFYQWITEGNYEIQITPWREPKSQLEFYNLRSGQTHDFEHILCGGGFNFMGELVPYWYRLTNVFKHIRNQELAAELSMIQIFGSLRYTVRTMLHYPQIWMTCVDAIQRGMKVGQESDALFMKKLEPHFHLPLEEARAALGVRGAVDVDTEIEGAFWAGRAPLSALTERIAAELEHHHHHH | soluble |
| SLQKEANKTYHSSLKDGKLILLLDLDNTLLQATSFAKFNMELPLENFVDDNGEAELYKFYLPQYNFFYYLKFRPYVRQFLQILSLYYELAIYTNATREYADVVIAILDPDRTIFSDRIVARCSSTDRDENKYFSRIYPNVDPKYVIAFDDRKDVWIDIPQSHILKAEHYNFFELSKYDIIS | not soluble |
| IKPGAKMGVIGSGIASVYAKEALQELGLEASFLKIGTYPVPKKLILELLSTVDTVLIFEELEPVVEEQVRILAQEAGLEVSVLGKEGGFVSREGELDVSAFLEALRKAFDLDIEPDSGKVPLELAPRPPSLCAGCSHRATFYSMKKVFGKDAIYPSDIGCYTLGIQSGTVETTLCMGSSISIASGLYHAGEKRPICCSIGDSTFFHTGMNSLLNAVFNKANITVTILDNRITAMTGHQPNPGVGFTVTGEPTVEVSLAELCKAMGAGFVTVV | not soluble |
| AEMKTDAATLAQEAGNFERISGDLKTQIDQVESTAGSLQGQWRGAAGTAAQAAVVRFQEAANKQKQELDEISTNIRQAGVQYSRADEEQQQALSSQMGF | soluble |
| MTQDTQLTFEARDEFNRKSIAEKVITLLRSDITVSPLVIDGSWGLGKTEFCQKLLSLMSTEETHHLIYIDAFKADHADEPLLTVLAKVLEVLPSQEEQQGLIQKAIPALRYGLKTGGKALVAHILRQDTDSIINGFDEEVKQVADKAIDASVESLLKDHVEAESSLQALQQALKSIAEQKPIVLFIDELDRCRPNFSVLMLETIKHTFDVEGVQFVLITNTNQLKASINHCYGPTIDAQRYLDKFIRFSFTLPHTTNENRHDVTMASVTHYKNLVAKSERLQGLSLDRDSDFWLVAQVINTNNISLREVETLVRHIEIYQALFDDQPLSNHTQWAYRLMALLGVLLISFKPNLAKSALINNLDAKDLGNFLGVHSLPKLENNQHPTHCDTLVFMLASECKYNSDFYVPDNPQDKERWEGEANEYFRGRYNLTRNGRMSLVTGAIKGLGLSVNLEHHHHHH | not soluble |
| MSLDLEFHGVMRFYFQDKAAGNFATKCIRVSSTATTQDVIETLAEKFRPDMRMLSSPKYSLYEVHVSGERRLDIDEKPLVVQLNWNKDDREGRFVLKNENDAIPPKAQSNGPEKQEKEGVIQNFKRTLSKKEKKEKKKREKEALRQASDKDDRPFQGEDVENSRLAAEVYKDMPETSFTRTISNPEVVMKRRRQQKLEKRMQEFRSSDGRPDSGGTLRIYADSLKPNIPYKTILLSTTDPADFAVAEALEKYGLEKENPKDYCIARVMLPPGAQHSDEKGAKEIILDDDECPLQIFREWPSDKGILVFQLKRRPPDHIPKKTKKHLEGKTPKGKERADGSGYGSTLPPEKLPYLVELSPGRRNHFAYYNYHTYEDGSDSRDKPKLYRLQLSVTEVGTEKLDDNSIQLFGPGIQPHHCDLTNMDGVVTVTPRSMDAETYVEGQRISETTMLQSGMKVQFGASHVFKFVDPSQDHALAKRSVDGGLMVKGPRHKPGIVQETTFDLGGDIHSGTALPTSKSTTRLDSDRVSSASSTAERGMVKPMIRVEQQPDYRRQESRTQDASGPELILPASIEFRESSEDSFLSAIINYTNSSTVHFKLSPTYVLYMACRYVLSNQYRPDISPTERTHKVIAVVNKMVSMMEGVIQKQKNIAGALAFWMANASELLNFIKQDRDLSRITLDAQDVLAHLVQMAFKYLVHCLQSELNNYMPAFLDDPEENSLQRPKIDDVLHTLTGAMSLLRRCRVNAALTIQLFSQLFHFINMWLFNRLVTDPDSGLCSHYWGAIIRQQLGHIEAWAEKQGLELAADCHLSRIVQATTLLTMDKYAPDDIPNINSTCFKLNSLQLQALLQNYHCAPDEPFIPTDLIENVVTVAENTADELARSDGREVQLEEDPDLQLPFLLPEDGYSCDVVRNIPNGLQEFLDPLCQRGFCRLIPHTRSPGTWTIYFEGADYESHLLREGHHHHHH | soluble |

From the DeepSol protein solubility set
